Measured values as given in patent publication US20080234198A1 (Eli Lilly, published 2008).
Changes are numbered by the printed parent chain. *1 amine or outer side, *2 acyl side, *3 side chain or, on linkers, in order; H or OH if unused. [ ]: non-standard residue; d: D form. The star is where a group is joined. Tyr(OMe) = methoxy tyrosine, COc1ccc(C[C@H](N[*:1])C(=O)[*:2])cc1; WPEG40K = not defined here; Orn = NCCC[C@H](N)C(=O)O; Abu = CC[C@H](N)C(=O)O; Hexanoyl = CCCCCC(=O)*; Aib = CC(C)(N)C(=O)O

T1: human VPAC2 receptor (human, UniProt P41587 24-438)
T1 sequence (looked up): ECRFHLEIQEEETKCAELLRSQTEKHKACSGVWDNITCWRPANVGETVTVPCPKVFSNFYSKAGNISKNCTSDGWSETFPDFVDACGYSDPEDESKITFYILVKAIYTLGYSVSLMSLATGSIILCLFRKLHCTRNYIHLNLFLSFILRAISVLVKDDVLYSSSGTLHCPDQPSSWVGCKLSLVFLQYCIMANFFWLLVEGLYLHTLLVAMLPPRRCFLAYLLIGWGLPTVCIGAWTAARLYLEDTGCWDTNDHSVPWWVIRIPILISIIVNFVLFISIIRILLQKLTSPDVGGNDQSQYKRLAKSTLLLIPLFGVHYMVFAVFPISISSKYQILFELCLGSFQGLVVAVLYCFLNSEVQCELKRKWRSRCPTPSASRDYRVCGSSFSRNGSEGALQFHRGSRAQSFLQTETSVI

T2: rat VPAC1 receptor (rat, UniProt P30083 31-459)
T2 sequence (looked up): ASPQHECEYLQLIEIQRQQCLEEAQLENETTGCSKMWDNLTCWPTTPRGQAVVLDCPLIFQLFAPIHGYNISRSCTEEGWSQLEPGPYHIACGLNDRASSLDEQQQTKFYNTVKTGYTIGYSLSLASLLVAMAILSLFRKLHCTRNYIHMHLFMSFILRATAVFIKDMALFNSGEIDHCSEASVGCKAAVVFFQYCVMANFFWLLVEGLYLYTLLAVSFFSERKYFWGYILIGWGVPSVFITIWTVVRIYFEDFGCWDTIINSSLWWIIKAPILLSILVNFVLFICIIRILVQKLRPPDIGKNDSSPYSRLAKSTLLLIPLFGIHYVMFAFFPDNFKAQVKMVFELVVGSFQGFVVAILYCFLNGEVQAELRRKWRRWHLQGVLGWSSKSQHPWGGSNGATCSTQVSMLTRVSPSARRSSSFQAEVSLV

T3: rat VPAC2 receptor (rat, UniProt P35000 23-437)
T3 sequence (looked up): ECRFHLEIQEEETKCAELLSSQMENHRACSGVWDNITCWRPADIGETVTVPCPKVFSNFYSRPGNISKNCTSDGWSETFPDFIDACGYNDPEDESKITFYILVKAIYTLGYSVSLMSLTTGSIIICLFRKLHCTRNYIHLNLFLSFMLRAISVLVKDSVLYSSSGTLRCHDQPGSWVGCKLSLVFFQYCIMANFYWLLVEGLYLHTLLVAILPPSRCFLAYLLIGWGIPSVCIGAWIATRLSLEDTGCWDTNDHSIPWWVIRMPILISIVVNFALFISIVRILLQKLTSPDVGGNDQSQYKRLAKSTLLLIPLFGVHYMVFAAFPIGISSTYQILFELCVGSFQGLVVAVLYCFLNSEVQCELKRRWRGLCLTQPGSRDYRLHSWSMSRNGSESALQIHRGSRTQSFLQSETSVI

B1: P574 (peptide)
peptide: HSDAVFTEQYTXLRXQLAXXXYLQXIXXGGPSSGAPPPCC
modifications: C6-HSDAVFTEQY(OMe)TOrnLRAibQLAAbuAibOrnY(OMe)LQAibIOrnOrnGGPSSGAPPPC(PEG20K)C(PEG20K)-NH2
B2: P602 (peptide)
peptide: B1 peptide with L23X, X25S
modifications: C6-HSDAVFTEQY(OMe)TOrnLRAibQLAAbuAibOrnYAibQSIOrnOrnGGPSSGAPPPC(PEG30K)C(PEG30K)-NH2
B3: P590 (peptide)
peptide: B1 peptide with A18X, X19A, X25S
modifications: C6-HSDAVFTEQY(OMe)TOrnLRAibQLAbuAAibOrnYLQSIOrnOrnGGPSSGAPPPC(PEG20K)C(PEG20K)-NH2
B4: P582 (peptide)
peptide: B1 peptide with X25S
modifications: C6-HSDAVFTEQY(OMe)TOrnLRAibQLAAbuAibOrnY(OMe)LQSIOrnOrnGGPSSGAPPPC(PEG20K)C(PEG20K)-NH2
B5: P490 (peptide)
peptide: HSDAVFTEQYTXLRXQVAAXXYLXSIXXGGPSSGAPPPC
modifications: C6-HSDAVFTEQY(OMe)TOrnLRAibQVAAAibOrnYLK(CO(CH2)2SPEG20K)SIOrnOrnGGPSSGAPPPC(PEG20K)-NH2

molecular target: T1, human VPAC2 receptor; experiment: cell-based or functional assay

Row | Binder | Human VPAC2 Receptor: Alphascreen (EC50; nM) [nM] | Human VPAC2 Receptor: DiscoveRx (EC50; nM) [nM]
1 | B1 | 21.2 | 36.1
2 | B2 | 42.1 | 7.2
3 | B3 | 4.1 | –
4 | B4 | 20.3 | –
5 | Hexanoyl-HSDAVFTEQ[Tyr(OMe)]T[Orn]LRK(WPEG40K)QLA[Abu][Aib][Orn]YLQ[Aib]I[Orn][Orn]GGPSSGAPPPS-NH2 (reading uncertain) [P557] | – | 108
6 | B5 | 116 | –
7 | HSDAVFTEQYTXLRXQVAAXXYLQSIXXGGPSSGAPPPS (C6-HSDAVFTEQY(OMe)TOrnLRK(CO(CH2)2SPEG40K)QVAAAibOrnYLQSIOrnOrnGGPSSGAPPPS-NH2) [P485] | 44.5 | –
8 | HSDAVFTEQYTXLRXQVAAXXYLQSIXXGGPSSGAPPPS (C6-HSDAVFTEQY(OMe)TOrnLRAibQVAAK(CO(CH2)2SPEG40K)OrnYLQSIOrnOrnGGPSSGAPPPS-NH2) [P475] | 109 | –
9 | HSDAVFTEQYTXLRXQVAAXCYLQSIXXGGPSSGAPPPS (C6-HSDAVFTEQY(OMe)TOrnLRAibQVAAAibC(PEG40K)YLQSIOrnOrnGGPSSGAPPPS-NH2) [P460] | 430 | –
10 | HSDAVFTEQYTXLRCQVAAXXYLQSIXXGGPSSGAPPPS (C6-HSDAVFTEQY(OMe)TOrnLRC(PEG40K)QVAAAibOrnYLQSIOrnOrnGGPSSGAPPPS-NH2) [P483] | 33.5 | –
11 | HSDAVFTEQYTXLRXQVAAXXYLXSIXXGGPSSGAPPPS (C6-HSDAVFTEQY(OMe)TOrnLRAibQVAAAibOrnYLK(WPEG40K)SIOrnOrnGGPSSGAPPPS-NH2) [P531] | 94.6 | –
12 | C6-HSDAVFTEQ[Tyr(OMe)]T[Orn]LRC(PEG 40 kDa)QLA[Abu][Aib][Orn]YLQ[Aib]I[Orn][Orn]GGPSSGAPPPS-NH2 [P547] | 62 | –

molecular target: T1, human VPAC2 receptor; experiment: filter binding, VPAC2 cell membranes, displacement of 125I-VIP
Protocol: Binding assays: Membrane prepared from a stable VPAC2 cell line (see Example 3) or from cells transiently transfected with human VPAC1 or PAC1 are used.
The assay plate is filled with 25 μL assay buffer, 25 μL membranes (2.5 μg) suspended in assay buffer, 25 μL agonist in assay buffer, and 25 μL tracer (about 40000 cpm) in assay buffer. The filled plate is incubated for 1 hour with shaking.
The transfer from assay plate to filter plate is conducted. The blocking buffer is aspirated by vacuum filtration and washed two times with flush buffer. 90 μL is transferred from the assay plate to the filter plate. The 90 μL transferred from assay plate is aspirated and washed three times with 200 μL flush buffer. The plastic support is removed. It is dried for 1 hour at 60° C. 30 μL Microscint is added. The count is performed.

Row | Binder | IC50 [nM]
13 | B1 | 32.3
14 | B2 | 28
15 | B3 | 7.4
16 | B4 | 48.3
17 | Hexanoyl-HSDAVFTEQ[Tyr(OMe)]T[Orn]LRK(WPEG40K)QLA[Abu][Aib][Orn]YLQ[Aib]I[Orn][Orn]GGPSSGAPPPS-NH2 (reading uncertain) [P557] | 380
18 | B5 | 13.2
19 | HSDAVFTEQYTXLRXQVAAXXYLQSIXXGGPSSGAPPPS (C6-HSDAVFTEQY(OMe)TOrnLRK(CO(CH2)2SPEG40K)QVAAAibOrnYLQSIOrnOrnGGPSSGAPPPS-NH2) [P485] | 17.3
20 | HSDAVFTEQYTXLRXQVAAXXYLQSIXXGGPSSGAPPPS (C6-HSDAVFTEQY(OMe)TOrnLRAibQVAAK(CO(CH2)2SPEG40K)OrnYLQSIOrnOrnGGPSSGAPPPS-NH2) [P475] | 436
21 | HSDAVFTEQYTXLRXQVAAXCYLQSIXXGGPSSGAPPPS (C6-HSDAVFTEQY(OMe)TOrnLRAibQVAAAibC(PEG40K)YLQSIOrnOrnGGPSSGAPPPS-NH2) [P460] | 914
22 | HSDAVFTEQYTXLRCQVAAXXYLQSIXXGGPSSGAPPPS (C6-HSDAVFTEQY(OMe)TOrnLRC(PEG40K)QVAAAibOrnYLQSIOrnOrnGGPSSGAPPPS-NH2) [P483] | 37.3
23 | HSDAVFTEQYTXLRXQVAAXXYLXSIXXGGPSSGAPPPS (C6-HSDAVFTEQY(OMe)TOrnLRAibQVAAAibOrnYLK(WPEG40K)SIOrnOrnGGPSSGAPPPS-NH2) [P531] | 69.7
24 | C6-HSDAVFTEQ[Tyr(OMe)]T[Orn]LRC(PEG 40 kDa)QLA[Abu][Aib][Orn]YLQ[Aib]I[Orn][Orn]GGPSSGAPPPS-NH2 [P547] | 5.6

molecular target: T2, rat VPAC1 receptor; experiment: cell-based or functional assay

Row | Binder | Rat VPAC1 Receptor: DiscoveRx: (EC50; nM) [nM]
25 | B1 | 163
26 | B2 | 209
27 | B3 | 245
28 | B4 | 137
29 | Hexanoyl-HSDAVFTEQ[Tyr(OMe)]T[Orn]LRK(WPEG40K)QLA[Abu][Aib][Orn]YLQ[Aib]I[Orn][Orn]GGPSSGAPPPS-NH2 (reading uncertain) [P557] | 581
30 | B5 | > 1000
31 | HSDAVFTEQYTXLRXQVAAXXYLQSIXXGGPSSGAPPPS (C6-HSDAVFTEQY(OMe)TOrnLRK(CO(CH2)2SPEG40K)QVAAAibOrnYLQSIOrnOrnGGPSSGAPPPS-NH2) [P485] | 735
32 | HSDAVFTEQYTXLRXQVAAXXYLQSIXXGGPSSGAPPPS (C6-HSDAVFTEQY(OMe)TOrnLRAibQVAAK(CO(CH2)2SPEG40K)OrnYLQSIOrnOrnGGPSSGAPPPS-NH2) [P475] | > 1000
33 | HSDAVFTEQYTXLRXQVAAXCYLQSIXXGGPSSGAPPPS (C6-HSDAVFTEQY(OMe)TOrnLRAibQVAAAibC(PEG40K)YLQSIOrnOrnGGPSSGAPPPS-NH2) [P460] | > 1000
34 | HSDAVFTEQYTXLRCQVAAXXYLQSIXXGGPSSGAPPPS (C6-HSDAVFTEQY(OMe)TOrnLRC(PEG40K)QVAAAibOrnYLQSIOrnOrnGGPSSGAPPPS-NH2) [P483] | 224
35 | HSDAVFTEQYTXLRXQVAAXXYLXSIXXGGPSSGAPPPS (C6-HSDAVFTEQY(OMe)TOrnLRAibQVAAAibOrnYLK(WPEG40K)SIOrnOrnGGPSSGAPPPS-NH2) [P531] | 301
36 | C6-HSDAVFTEQ[Tyr(OMe)]T[Orn]LRC(PEG 40 kDa)QLA[Abu][Aib][Orn]YLQ[Aib]I[Orn][Orn]GGPSSGAPPPS-NH2 [P547] | 76.2

molecular target: T3, rat VPAC2 receptor; experiment: cell-based or functional assay

Row | Binder | Rat VPAC2 Receptor: DiscoveRx: (EC50; nM) [nM]
37 | B1 | 33.8
38 | B2 | 36.9
39 | B3 | 6.9
40 | B4 | 31
41 | Hexanoyl-HSDAVFTEQ[Tyr(OMe)]T[Orn]LRK(WPEG40K)QLA[Abu][Aib][Orn]YLQ[Aib]I[Orn][Orn]GGPSSGAPPPS-NH2 (reading uncertain) [P557] | 397
42 | B5 | 192
43 | HSDAVFTEQYTXLRXQVAAXXYLQSIXXGGPSSGAPPPS (C6-HSDAVFTEQY(OMe)TOrnLRK(CO(CH2)2SPEG40K)QVAAAibOrnYLQSIOrnOrnGGPSSGAPPPS-NH2) [P485] | 42.5
44 | HSDAVFTEQYTXLRXQVAAXXYLQSIXXGGPSSGAPPPS (C6-HSDAVFTEQY(OMe)TOrnLRAibQVAAK(CO(CH2)2SPEG40K)OrnYLQSIOrnOrnGGPSSGAPPPS-NH2) [P475] | 220
45 | HSDAVFTEQYTXLRXQVAAXCYLQSIXXGGPSSGAPPPS (C6-HSDAVFTEQY(OMe)TOrnLRAibQVAAAibC(PEG40K)YLQSIOrnOrnGGPSSGAPPPS-NH2) [P460] | 1160
46 | HSDAVFTEQYTXLRCQVAAXXYLQSIXXGGPSSGAPPPS (C6-HSDAVFTEQY(OMe)TOrnLRC(PEG40K)QVAAAibOrnYLQSIOrnOrnGGPSSGAPPPS-NH2) [P483] | 128
47 | HSDAVFTEQYTXLRXQVAAXXYLXSIXXGGPSSGAPPPS (C6-HSDAVFTEQY(OMe)TOrnLRAibQVAAAibOrnYLK(WPEG40K)SIOrnOrnGGPSSGAPPPS-NH2) [P531] | 69.9
48 | C6-HSDAVFTEQ[Tyr(OMe)]T[Orn]LRC(PEG 40 kDa)QLA[Abu][Aib][Orn]YLQ[Aib]I[Orn][Orn]GGPSSGAPPPS-NH2 [P547] | 150
